Publication PMC4559334

Legend:
Test in all cases: EMSA
Conditions in all cases: not stated in the material held
[1] = test system: AlaRS full-length (Escherichia coli)
C-Ala (Escherichia coli) = test system: C-Ala (Escherichia coli)
[2] = test system: ED-C-Ala (Escherichia coli)

Substance: tRNAAla, 3'-labelled
- Kd [1]: 3000 nM
- Kd (C-Ala (Escherichia coli)): 800 nM
- Kd [2]: 2200 nM
